Target: 17T2 mAb de-glycosylated with PNGase F (human)
Experiment: SPR

17T2 mAb de-glycosylated with PNGase F (human), sequence (heavy, as listed by the source, chain 1 of 2): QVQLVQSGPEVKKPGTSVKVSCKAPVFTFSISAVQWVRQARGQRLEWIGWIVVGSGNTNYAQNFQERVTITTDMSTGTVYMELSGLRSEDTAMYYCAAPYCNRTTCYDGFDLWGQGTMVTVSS
17T2 mAb de-glycosylated with PNGase F (human), sequence (light, as listed by the source, chain 2 of 2): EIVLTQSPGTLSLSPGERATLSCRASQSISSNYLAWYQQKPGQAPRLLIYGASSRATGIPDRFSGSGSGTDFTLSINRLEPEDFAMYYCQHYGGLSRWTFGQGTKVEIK

SARS-CoV-2 spike receptor binding domain, ancestral WH1 (from UniProt P0DTC2 319-541) (domain or fragment)
Kd: 0.0749 nM | koff: 0.00013 s⁻¹ | kon: 1.74e+06 M⁻¹ s⁻¹
